Values belong to the substance of their own block, whether it stands above or below them.
What was measured:
[1] = molecular target: soluble Fc-tagged VEGFR3; assay: ELISA
[2] = molecular target: decorin protein core (UniProt P07585); assay: ELISA

Sequence of decorin protein core (P07585 31-359): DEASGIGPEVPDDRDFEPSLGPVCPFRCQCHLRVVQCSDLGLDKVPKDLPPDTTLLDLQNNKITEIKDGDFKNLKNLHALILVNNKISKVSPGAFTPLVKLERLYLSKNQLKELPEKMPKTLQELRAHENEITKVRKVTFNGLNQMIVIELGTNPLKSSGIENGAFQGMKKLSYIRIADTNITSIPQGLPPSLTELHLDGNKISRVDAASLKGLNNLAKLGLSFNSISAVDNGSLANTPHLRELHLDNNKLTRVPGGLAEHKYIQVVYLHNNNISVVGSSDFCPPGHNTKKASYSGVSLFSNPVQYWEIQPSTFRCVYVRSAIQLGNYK

- percent of bound decorin protein core displaced [1]: 20%
Substance: VEGFC (from UniProt P49767 32-227) (ligand)

- Kd [1]: 0.027 µM
Substance: decorin protein core (from UniProt P07585 31-359) (natural protein)

- Kd [2]: 0.047 µM
Substance: soluble Fc-tagged VEGFR3 (Fc fusion)

— paper doi:10.1101/2023.08.28.555187
